Assay results taken from patent US20060110730A1, “Methods and compositions for regulation and manipulation of steroidogenesis” (priority 2002, published 2006).

Experiments:
[1] = system: COS-1 cells; experiment: Pregnenolone production of COS-1 cells co-transfected with F2 (cholesterol side-chain cleavage fusion) and StAR constructs; assay type: cell-based, monkey; conditions: for increase in steroidogenesis over the StAR-independent level seen with F2 alone: accumulated pregnenolone after 48 h; for steroidogenic activity (in words): pregnenolone in medium
Method: COS-1 cells were grown, transfected and assayed for pregnenolone production as Described (Stocco, D. M. & Clark, B. J. Regulation of the acute production of steroids in steroidogenic cells. Endocr. Rev. 17, 221-244 (1996)), (Bose, H. S., et al. N-218 MLN64, a protein with StAR-like steroidogenic activity is folded and cleaved similarly to StAR. Biochemistry 39, 11722-11731 (2000)). Three independent transfections, each performed in triplicate, were done for each construct.
To determine the location of biological activity of the mitochondrial protein StAR, wild-type and StAR proteins with an N-terminal deletion and StAR proteins fused to a protein that would function to immobilize the StAR protein in one of the four mitochondrial compartments were evaluated for their ability to catalyze steroidogenesis. Nonsteroidogenic COS-I monkey kidney cells were grown, transfected and assayed for pregnenolone production as described (Stocco, D. M. and Clark, B. J., Endocr Rev 17, 221-244 (1996); Bose, H. S., et al., Biochemistry 39, 11722-11731 (2000)). Three independent transfections, each performed in triplicate, were done for each construct. The cells were transfected with a vector expressing full length StAR or a vector expressing N-62 StAR, Tom-StAR, StAR-Tom, Tim44-StAR, or Tim9-StAR. Tom20, Tim9 and Tim44 cDNAs were prepared from human adrenal RNA by RT-PCR. N-62 StAR cDNA including an enterokinase linker fused to 63-285 StAR was derived from a bacterial expression vector (see Artemenko, et al., J. Biol. Chem. 276: 46583-46596 (2001). Tom/StAR is Tom20 fused to 63-285 through GSDDDDK, which contains Bam HI and enterokinase sites (Bam/EK linker). StAR/Tom is 1-285 StAR fused to Tom20 through Eco RI/EK linker (GFDDDDK). Tim9/StAR contains the 25 amino acid mitochondrial leader of cytochrome c oxidase subunit IV (Bose et al, Biochemistry, 37: 9768-9775 (1998)) fused to Tim9 linked to N-30 StAR through the Bam/EK linker. Tim44/StAR is Tim44 fused to 63-285 StAR through the Bam/EK linker. Tom20 has 50 amino-terminal residues embedded in the OMM and 95 residues in the cytoplasm (Abe, Y., et al., Cell 100, 551-560 (2000)). Expression of Tom20 with N-62 StAR fused to its carboxy-terminus (Tom/StAR) affixed StAR to the cytoplasmic side of the OMM. Expression of Tim9, which is normally confined to the IMS (Bauer et al, J. Inher. Metab. Dis. 24: 166-180 (2001)), fused to N-30 StAR (Tim9/StAR) localized StAR to the IMS. Expression of Tim44, which lies on the matrix side of the IMM, fused to N-62 StAR (Tim44/StAR), targeted StAR to the matrix. […]

[2] = system: MA-10 mitochondria; experiment: Steroidogenic activity (pregnenolone) of isolated MA-10 mitochondria incubated with StAR constructs from cell-free transcription/translation; assay type: biochemical, mouse
Method: (§1) StAR constructs were bioassayed (Bose, H. S., et al. N-218 MLN64, a protein with StAR-like steroidogenic activity is folded and cleaved similarly to StAR. Biochemistry 39, 11722-11731 (2000)) with MA-10 mitochondria. Linked transcription/translation system was added directly to the mitochondria except when Tim9/StAR was immunoprecipitated with anti-StAR antiserum (Bose, H. S., et al. The active form of the steroidogenic acute regulatory protein, StAR, appears to be a molten globule. Proc. Natl Acad. Sci. USA 96, 7250-7255 (1999)), collected with protein A-sepharose CL-4B (Pharmacia), washed, dissociated from the sepharose-antibody complex at pH 3.0, neutralized and added directly to mitochondria. Immunoassays of pregnenolone were performed after incubation at 378 C. for 1 h; immunoblotting was performed as described (Bose, H. S., et al. N-218 MLN64, a protein with StAR-like steroidogenic activity is folded and cleaved similarly to StAR. Biochemistry 39, 11722-11731 (2000)).
as §1, with “al.,” for “al. N-218 MLN64, a protein with StAR-like steroidogenic activity is folded and cleaved similarly to StAR.”, “al., Proc” for “al. The active form of the steroidogenic acute regulatory protein, StAR, appears to be a molten globule. Proc.”, “Acad Sci” for “Acad. Sci.”, “harvested” for “collected”, “37°” for “378 C.”

[3] = system: MA-10 cell mitochondria; experiment: Mitochondrial import and cleavage kinetics of StAR constructs; assay type: biochemical, mouse; conditions: 26° C., phosphorimager quantitation of uncleaved and cleaved imported protein
Description: StAR constructs were cloned into the BglII/EcoRI site of pSP6, transcribed with SP6 RNA polymerase (Promega) and translated with [35S]methionine as described (Chuck, S. & Lingappa, V. Apolipoprotein B intermediates. Nature 356, 115-116 (1992)). Mitochondria, isolated from 5 £ 106 MA-10 or COS-1 cells by hypotonic shock and homogenization (Bose, H. S., et al. N-218 MLN64, a protein with StAR-like steroidogenic activity is folded and cleaved similarly to StAR. Biochemistry 39, 11722-11731 (2000)) were suspended in […] of 125 mM sucrose, 1 mM ATP, 1 mM NADH, 50 mM KCl, 0.05 mM ADP, 2 mM DTT, 5 mM Na-succinate, 2 mM Mg(OAc)2, 2 mM KH2PO4 and 10 mM HEPES buffer at pH 7.4. Mitochondria (50 ml) and 1 ml of the transcription/translationmix were incubated at 268 C. for various times; import was terminated with 1 ml 1 mM mCCCP (Calbiochem). Some mitochondria were extracted with fresh 100 mM Na2CO3, pH 11.5, for 15 min at 48 C. and spun at 15,000 g for 15 min at 48 C. to pellet membranes. Some membranes were incubated with 0.1% digitonin (Sigma) for 15 min at 48 C. and spun at 144,000 g for 1 h at 48 C. to pelletOMMfragments. […] Analysis was by SDS-polyacrylamide gel electrophoresis (SDS-PAGE) and phosphorimager quantification (Molecular Dynamics, Storm 860). […]

| Molecule | increase in steroidogenesis over the StAR-independent level seen with F2 alone [1] | steroidogenic activity (in words) [1] | steroidogenic activity (in words) ([1]; listed as full-length (1-285) StAR) | increase in steroidogenesis ([2]; MA-10 mitochondria incubated with cell-free transcription/translation system expressing the construct, versus control system) | activity of MA-10 cell mitochondria (in words) ([2]; equal amounts of each protein added, 1 h) | steroidogenic activity of reconstituted mitochondria (in words) ([2]; mitochondria reconstituted from OMM and mitoplast fractions) | import speed (ranking) [3] |
| --- | --- | --- | --- | --- | --- | --- | --- |
| CC(C)CC[C@@H](O)[C@@H](C)[C@H]1CC[C@H]2[C@@H]3CC=C4C[C@@H](O)CC[C@]4(C)[C@H]3CC[C@]12C [22R-OH-cholesterol, 22R-hydroxycholesterol, reference compound] | ~20 fold |  |  |  |  |  |  |
| full-length StAR: full-length (1-285) steroidogenic acute regulatory protein (protein, UniProt P49675 1-285, looked up, full-length, full-length (1-285) steroidogenic acute regulatory protein) MLLATFKLCAGSSYRHMRNMKGLRQQAVMAISQELNRRALGGPTPSTWINQVRRRSSLLGSRLEETLYSDQELAYLQQGEEAMQKALGILSNQEGWKKESQQDNGDKVMSKVVPDVGKVFRLEVVVDQPMERLYEELVERMEAMGEWNPNVKEIKVLQKIGKDTFITHELAAEAAGNLVGPRDFVSVRCAKRRGSTCVLAGMATDFGNMPEQKGVIRAEHGPTCMVLHPLAGSPSKTKLTWLLSIDLKGWLPKSIINQVLSQTQVDFANHLRKRLESHPASEARC | 6 fold | equivalent at all times measured after transfection | about half the maximal capacity of the cells | ~6 fold | equally active | active | Scc/N-62 StAR>>Scc/N-30 StAR>full-length StAR |
